Experimental data as given in patent US20150087584A1.

Target: Helicoverpa armigera gut proteases (HGP) (Helicoverpa armigera)
Test: cell-based or functional assay

HGPI activity of the IRD alone at its IC50 concentration [%] | inhibition of HGP activity (BApNA and Azocasein substrates) [%] | Binder
51 | 80 to 85 | NRLCTNCCAGRKGCNYYSADGTFICEGESDPNNPKACPRNCDPNIAYSLC [inhibitory repeat domain IRD-12 of Capsicum annuum Pin-II proteinase inhibitors (CanPIs)]
 | 80 to 85 | QPICTNSSAGLKGCNYYNADGTFICEGESDPNHPKACPKNCDPNIAYSLC [inhibitory repeat domain IRD-9 of Capsicum annuum Pin-II proteinase inhibitors (CanPIs)]
